B1: myc-Syd-N2 (Syd^1-529) R492 [Drosophila] / HA-Rab2^Q65L [Drosophila] (parent)
chain 1: MMDNDDALLNNGGPQSGAETVYGTEDNNMVMSEKNEQVVSIVQQLAGSIYQEFERMINRYDEDVVKNLMPLLVNVLECLDASYRINQEQDVEVELLREDNEQLVTQYEREKSARKQSEQKLLEAEDLAEQENKELATRLESVESIVRMLELKHKNSLEHASRLEEREADLKKEYNKLHERYTELFKNHVDYMERTKMLMGSTHSQMSTASERMDVSRARLNPVARSSGPVSYGFASLENSVMLDTETICSVGSQSDDSGPPSLQNELDNLSGTLERGAATDALQQQHHATSPQSPDSSPVVPNVPTNVGRSTTKKEQRSDNNLYQELSFQDNEESEENEIVTGSWVHPGEYASSANDNYFGMGKEVENLIMENNELLATKNALNIVKDDLIVKVDELTGEVEIVREELNAMQQSRTKLRQRISELEDELKKAKEQVKQQNTEQEENDVPLAQRKRFTRVEMAMVLMERNQYKERLMELQEAVRLTEILRASRTVDNLDRKSKQSIWKYFSNLFTPSNRPTERVADGLGG
chain 2: MSYAYLFKYIIIGDTGVGKSCLLLQFTDKRFQPVHDLTIGVEFGARMITIDGKQIKLQIWDTAGLEAFRSITRSYYRGAAGALLVYDITRRETFNHLTTWLEDARQHSNSNMVIMLIGNKSDLDSRREVKKEEGEAFAREHGLVFMETSARTAANVEEAFINTAKEIYEKIQEGVFDINNEANGIKIGQQHSPTNPSLPGAGGAAGAANSGCC

Variants of: B1
Test: Co-IP (anti-HA IP, anti-myc immunoblot quantification)
Details: with HA-Rab2^Q65L [Drosophila]; HEK cell lysates; single experiment 1 of 3 (solid line); P < 0.005 vs WT printed; parent: 17; read off a plot

Row | response [a.u.] | Variant
1 | 11 | chain 1 V482A R483A L484A T485A E486A I487A R489A S491A R492A

Same assay, conditions: with HA-Rab2^Q65L [Drosophila]; HEK cell lysates; single experiment 2 of 3 (upper dashed line); P < 0.005 vs WT printed; parent: 17; read off a plot

Row | response [a.u.] | Variant
2 | 6.8 | chain 1 V482A R483A L484A T485A E486A I487A R489A S491A R492A

Same assay, conditions: with HA-Rab2^Q65L [Drosophila]; HEK cell lysates; single experiment 3 of 3 (lower dashed line); P < 0.005 vs WT printed; parent: 17; read off a plot

Row | response [a.u.] | Variant
3 | 4.7 | chain 1 V482A R483A L484A T485A E486A I487A R489A S491A R492A

— publication PMC12772503
